# Source: patent US20020115110A1 (GlaxoSmithKline, published 2002)
# T1: TR1Fc (human, UniProt O00300 22-401, limits assumed)
# T1 construct: also called TR1 Fc fusion protein; TR1 (osteoprotegerin, OPG) fused to hinge-CH2-CH3 of human IgG1
# T1 sequence: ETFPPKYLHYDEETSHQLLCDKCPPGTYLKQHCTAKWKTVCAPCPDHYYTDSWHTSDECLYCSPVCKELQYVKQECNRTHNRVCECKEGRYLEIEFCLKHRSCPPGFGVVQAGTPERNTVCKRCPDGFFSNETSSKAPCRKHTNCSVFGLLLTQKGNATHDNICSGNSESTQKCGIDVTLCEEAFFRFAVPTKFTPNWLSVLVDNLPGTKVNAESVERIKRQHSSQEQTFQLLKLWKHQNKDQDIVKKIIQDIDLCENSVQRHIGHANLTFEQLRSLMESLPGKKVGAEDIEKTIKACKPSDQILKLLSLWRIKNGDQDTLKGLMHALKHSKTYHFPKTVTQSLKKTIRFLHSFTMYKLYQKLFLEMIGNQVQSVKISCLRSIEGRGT
# B1: sTL4 (ligand, not shown: small tags and cut ends)
# chain: HHHHHHSDDDDKQERRSHEVNPAAHLTGANSSLTGSGGPLLWETQLGLAFLRGLSYHDGALVVTKAGYYYIYSKVQLGGVGCPLGLASTITHGLYKRTPRYPEELELLVSQQSPCGRATSSSRVWWDSSFLGGVVHLEAGEKVVVRVLDERLVRLRDGTRSYFGAFMV
# notes: also called soluble TL4
# B2: TR2Fc (Fc fusion, not shown: a dimerising Fc or GST)
# chain: LPFCKEDEYPVGSECCPKCSPGYRVKEACGELTGTVCEPCPPGTYIAHLNGLSKCLQCQMCDPAMGLRASRNCSRTENAVCGCSPGHFCIVQDGDHCAACRAYATSSPGQRVQKGGTESQDTLCQNCPPGTFSPNGTLEECQHQTKCSWLVTKARSIEGRGT
# notes: Secreted from mammalian cells as a dimer and purified on protein A. Residues 1-192 include the putative leader peptide, which is removed on secretion; also called TR2 (HVEM) extracellular domain fused to hinge-CH2-CH3 of human IgG1; product of plasmid TR2Fclink
# What was measured:
# TR1Fc = molecular target: T1, TR1Fc; assay: SPR (BIAcore 2000), Fc fusion captured on immobilized protein A, ligand injected
# Procedure: (§1) Surface plasmon resonance. Protein A was immobilized on to a research grade carboxymethyldextran chip (CM5) using amin coupling procedures described previously (4). Flow cell 1 was activated with NHS/EDC for 5 min. Protein A was injected a a concentration of 1 ug/ml in NaOAc buffer (10 mM, pH 5.0) until 1000RUs of protein were coupled. Remaining activated groups were blocked with a 7 min injection of 1M ethanolamine. A control surface was created by repeating the coupling procedure in a flow cell2 without incorporating protein A. In a BIAcore 2000 biosensor (BIAcore Inc. Uppsala, Sweden) TR1Fc or TR2Fc were then injected at a flow rate of 100 ul/min followed by injection of TL2 or TL4, and the binding to receptor monitored by chances in surface plasmon resonance relative to the control chip. In these experiments, TR1Fc bound to TL2 but not TL4 and TR2Fc bound to TL4 but not TL2.
# sTL2 = molecular target: T2, sTL2 (Homo sapiens (Human), UniProt P50591 97-281); assay: as above
# T2 construct: also called soluble TL2; TRAIL
# T2 sequence (P50591 97-281): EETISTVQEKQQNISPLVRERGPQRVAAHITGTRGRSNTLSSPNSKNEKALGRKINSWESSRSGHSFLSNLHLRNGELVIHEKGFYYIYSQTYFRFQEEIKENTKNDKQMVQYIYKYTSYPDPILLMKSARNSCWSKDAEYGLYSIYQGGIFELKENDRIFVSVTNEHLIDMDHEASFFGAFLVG
# Procedure: as §1
Binder,binding result (TR1Fc),binding result (sTL2)
B1,no binding,
B2,,no binding
